The target in the assay is T1, αβγENaC (Rattus norvegicus, UniProt P37089+P37090+P37091, R138K/R205K/R231K).
T1 construct: expressed in transfected cells; host or cells: Xenopus laevis oocytes (cRNA injection)
T1 sequence (P37089 1-698 R205K/R231K): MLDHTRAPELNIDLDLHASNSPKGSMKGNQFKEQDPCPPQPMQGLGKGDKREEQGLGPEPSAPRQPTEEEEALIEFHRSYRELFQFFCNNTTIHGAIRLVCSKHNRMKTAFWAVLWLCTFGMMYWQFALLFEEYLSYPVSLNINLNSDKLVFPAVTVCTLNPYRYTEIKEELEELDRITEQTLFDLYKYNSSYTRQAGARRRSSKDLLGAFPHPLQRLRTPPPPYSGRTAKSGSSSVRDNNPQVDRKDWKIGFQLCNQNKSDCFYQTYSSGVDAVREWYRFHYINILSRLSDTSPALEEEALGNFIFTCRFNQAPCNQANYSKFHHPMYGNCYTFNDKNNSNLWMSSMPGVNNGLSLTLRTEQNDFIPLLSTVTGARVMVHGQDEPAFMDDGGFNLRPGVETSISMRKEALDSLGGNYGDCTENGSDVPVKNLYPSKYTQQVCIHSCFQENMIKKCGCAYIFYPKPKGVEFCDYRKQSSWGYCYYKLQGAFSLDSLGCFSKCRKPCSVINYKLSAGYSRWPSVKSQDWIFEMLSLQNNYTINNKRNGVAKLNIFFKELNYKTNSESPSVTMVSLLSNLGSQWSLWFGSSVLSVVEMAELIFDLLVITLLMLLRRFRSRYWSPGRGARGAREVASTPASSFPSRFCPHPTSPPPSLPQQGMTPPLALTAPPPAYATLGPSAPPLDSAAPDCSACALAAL
T1 sequence (P37090 1-638): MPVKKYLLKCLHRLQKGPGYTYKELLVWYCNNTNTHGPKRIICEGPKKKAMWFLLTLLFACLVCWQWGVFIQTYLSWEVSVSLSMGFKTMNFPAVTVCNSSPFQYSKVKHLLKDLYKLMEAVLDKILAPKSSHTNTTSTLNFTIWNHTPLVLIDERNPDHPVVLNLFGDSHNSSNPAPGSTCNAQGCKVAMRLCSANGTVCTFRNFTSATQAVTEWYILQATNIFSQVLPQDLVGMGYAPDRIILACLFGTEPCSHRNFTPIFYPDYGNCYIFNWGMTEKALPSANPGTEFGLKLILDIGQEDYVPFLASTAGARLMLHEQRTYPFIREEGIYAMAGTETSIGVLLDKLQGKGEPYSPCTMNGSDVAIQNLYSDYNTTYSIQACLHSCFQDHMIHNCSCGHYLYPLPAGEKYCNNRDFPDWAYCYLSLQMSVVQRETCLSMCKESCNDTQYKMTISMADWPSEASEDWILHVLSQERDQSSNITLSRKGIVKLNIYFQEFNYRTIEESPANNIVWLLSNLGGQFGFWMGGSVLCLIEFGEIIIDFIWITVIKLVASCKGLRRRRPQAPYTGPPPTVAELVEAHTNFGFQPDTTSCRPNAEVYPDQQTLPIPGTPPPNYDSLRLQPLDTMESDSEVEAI
T1 sequence (P37091 1-650 R138K): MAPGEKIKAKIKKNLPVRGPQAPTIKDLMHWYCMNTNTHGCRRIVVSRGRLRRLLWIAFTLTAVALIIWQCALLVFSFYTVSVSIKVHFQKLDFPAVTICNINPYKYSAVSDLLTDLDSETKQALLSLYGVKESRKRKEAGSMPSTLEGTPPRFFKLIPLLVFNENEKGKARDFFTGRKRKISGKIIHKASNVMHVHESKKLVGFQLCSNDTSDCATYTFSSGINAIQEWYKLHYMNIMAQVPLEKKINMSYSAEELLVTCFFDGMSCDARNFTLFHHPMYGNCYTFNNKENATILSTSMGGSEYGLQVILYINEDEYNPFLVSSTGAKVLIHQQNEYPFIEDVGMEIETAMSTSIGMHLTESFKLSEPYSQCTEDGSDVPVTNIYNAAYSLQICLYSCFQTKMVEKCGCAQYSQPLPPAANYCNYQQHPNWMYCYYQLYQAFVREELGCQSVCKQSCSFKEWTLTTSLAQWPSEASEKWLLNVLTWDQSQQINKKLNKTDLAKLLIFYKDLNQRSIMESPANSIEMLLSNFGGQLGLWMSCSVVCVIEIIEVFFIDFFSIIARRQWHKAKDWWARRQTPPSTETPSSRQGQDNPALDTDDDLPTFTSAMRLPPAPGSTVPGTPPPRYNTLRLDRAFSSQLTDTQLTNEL
As to the kind of experiment: Amiloride-sensitive whole cell current, two electrode voltage clamp, Xenopus laevis oocytes expressing αβγENaC. Type of assay: cell-based. To be noted: SPLUNC1 co-expressed. As for the experimental part:
Xenopus laevis oocytes were harvested and injected as described (Donaldson, et al., J. Biol. Chem. 277:8338 (2002)). Defolliculated healthy stage V-VI oocytes were injected with 0.3 ng of CRNA of each ENaC subunit. Injected oocytes were kept in modified Barth's saline (in mM: 88 NaCl, 1 KCl, 2.4 NaHCO3, 0.3 Ca(NO3)2, 0.41 CaCl2, 0.82 MgSO4, and 15 HEPES, adjusted to pH 7.35 with Tris). Oocytes were studied 24 hr after injection using the two electrode voltage clamp technique as previously described (Donaldson, et al., J. Biol. Chem. 277:8338 (2002)). Oocytes were clamped at a holding potential of −60 mV. The change in amiloride-sensitive whole cell current as an indicator of ENaC activity was determined by subtracting the corresponding current value measured in the presence of 10 μM amiloride from that measured before the application of amiloride. Where appropriate, oocytes were incubated with G22-A39 or ABC for 1 h prior to recording. In some experiments β-ENaC^S518C was used which forms ENaCs that are locked into an open probability near 1.0 by exposure to the sulthydral reactive reagent [2-(Trimethyl-ammonium)ethyl]methanethiosulphonate bromide (MTSET). MTSET was added at a concentration of 1 mM to the oocyte bath as previously described (Snyder, J. Clin. Invest. 105: 45 (2000)).

B1: SPLUNC1: human SPLUNC1 (SEQ ID NO:1), 256 amino acid secreted PLUNC family protein; rSPLUNC1 is the purified V5/6His-tagged recombinant form (protein, listed as Homo sapiens)
chain: MFQTGGLIVFYGLLAQTMAQFGGLPVPLDQTLPLNVNPALPLSPTGLAGSLTNALSNGLLSGGLLGILENLPLLDILKPGGGTSGGLLGGLLGKVTSVIPGLNNIIDIKVTDPQLLELGLVQSPDGHRLYVTIPLGIKLQVNTPLVGASLLRLAVKLDITAEILAVRDKQERIHLVLGDCTHSPGSLQISLLDGLGPLPIQGLLDSLTGILNKVLPELVQGNVCPLVNEVLRGLDITLVHDIVNMLIHGLQFVIKV
modifications: V5/6His tag in recombinant form
notes: rSPLUNC1 is the purified V5/6His-tagged recombinant form
Consider B1, for which the “current of furin-insensitive αR205,231K,β,γR138K ENaC mutant” value was “also inhibited”.

These data come from patent publication US9127040B2, “Regulation of sodium channels by PLUNC proteins” (The University of North Carolina at Chapel Hill, priority 2011, dated 2015).
